These results are taken from US20110257373A1 (published 2011).

B1: LIP1-33 (other)
VH: EVQLLESGGGLVQPGGSLRLSCAASGFTFPSGTMGWVRQAPGKGLEWVSYIDPSGFMTYYADSVKGRFTISRDNSKNTLYLQMNSLRAEDTAVYYCAKSIVPRSGTFDYWGQGTLVTVSS
notes: Human VH domain antibody (dAb); also called LIP1-33 phage
B2: LIP1-25 (other)
VH: EVQLLESGGGLVQPGGSLRLSCAASGFTFPDADMVWVRQAPGKGLEWVSSISDHGFNTYYADSVKGRFTISRDNSKNTLYLQMNSLRAEDTAVYYCAKSPLATFDYWGQGTLVTVSS
B3: LIP1-29 (other)
VH: EVQLLESGGGLVQPGGSLRLSCAASGFTFDRRAMGWVRQAPGKGLEWVSSIESDGTRTYYADSVKGRFTISRDNSKNTLYLQMNSLRAEDTAVYYCAKHPGSSYVFDYWGQGTLVTVSS
notes: all other claims print 34
B4: DC-SIGN peptide (9xHIS tag, linker and the C-terminal end of DC-SIGN) (peptide)
peptide: HHHHHHHHHSGSGKKSAASCSRDEEQFLSPAPATPNPPPA
notes: also called HIS tagged DC-SIGN peptide
B5: LIP1-27 (other)
VH: EVQLLESGGGLVQPGGSLRLSCAASGFTFEQTDMHWARQAPGKGPEWVSSISPLGAFTYYADSVKGRFTISRDNSKNTLYLQMNSLRAEDTAVYYCAKSPLVRNNGQFDYWGQGTLVTVSS
B6: 1-12 (other)
VK dAb: DIQMTQSPSSLSASVGDRVTITCRASRPIGTNLYWYQQKPGKAPKLLIVGGSFLQSGVPSRFSGSGSGTDFTLTISSLQPEDFATYYCGQRARYPGTFGQGTKVEIKR
notes: human VK domain antibody, tested as phage particles; also called LIP1-12; LIP1-12 phage
B7: 1-26 (other)
VH dAb: EVQLLESGGGLVQPGGSLRLSCAASGFTFSHYTMSWVRQAPGKGLEWVSSISSTGFKTYYADSVKGRFTISRDNSKNTLYLQMNSLRAEDTAVYYCAKWNPHRSTYFDYWGQGTLVTVSS
notes: human VH domain antibody, tested as phage particles; also called LIP1-26; LIP1-26 phage
B8: LIP1-30 (other)
VH: EVQLLESGGGLVQPGGSLRLSCAASGFTFSGYSMAWVRQAPGKGLEWVSQIGPLGVKTYYADSVKGRFTISRDNSKNTLYLQMNSLRAEDTAVYYCAKLTSDAHDFDYWGQGTLVTVSS
notes: all other claims print 29
B9: 1-15 (other)
VK dAb: DIQMTQSPSSLSASVGDRVTITCRASRAIGTYLAWYQQKPGKAPKLLILWGSVLQSGVPSRFSGSGSGTDFTLTISSLQPEDFATYYCAQLAQRPSTFGQGTKVEIKR
notes: human VK domain antibody, tested as phage particles; also called LIP1-15; LIP1-15 phage
B10: LIP1-28 (other)
VH: EVQLLESGGGLVQPGGSLRLSCAASGFTFVATPMHWVRQAPGKGLEWVSAISGSGGSTYYADSVKGRFTISRDNSKNTLYLQMNSLRAEDTAVYYCAKGWDPSLERFDYWGQGTLVTVSS
B11: 1-13 (other)
VK dAb: DIQMTQSPSSLSASVGDRVTITCRASQGIWQELKWYQQKPGKAPRLLIYRGSSLQSGVPSRFSGSGSGTDFTLTISSLQPEDFATYYCQQSFYPPYTFGQGTKVEIKR
notes: human VK domain antibody, tested as phage particles; also called LIP1-13; LIP1-13 phage
B12: 1-23 (other)
VK dAb: B11 VK dAb with G28D, Q31R, K34R, R45K, G51A, S53N, F62L, S91T
notes: human VK domain antibody, tested as phage particles; also called LIP1-23; LIP1-23 phage

Numbering of substitutions follows the chain as printed.

Test [1] has as its target T1, human DC-SIGN (human, UniProt Q9NNX6 62-404, limits assumed).
T1 construct: Coated on ELISA wells; also called CD209; DC-SIGN protein
T1 sequence: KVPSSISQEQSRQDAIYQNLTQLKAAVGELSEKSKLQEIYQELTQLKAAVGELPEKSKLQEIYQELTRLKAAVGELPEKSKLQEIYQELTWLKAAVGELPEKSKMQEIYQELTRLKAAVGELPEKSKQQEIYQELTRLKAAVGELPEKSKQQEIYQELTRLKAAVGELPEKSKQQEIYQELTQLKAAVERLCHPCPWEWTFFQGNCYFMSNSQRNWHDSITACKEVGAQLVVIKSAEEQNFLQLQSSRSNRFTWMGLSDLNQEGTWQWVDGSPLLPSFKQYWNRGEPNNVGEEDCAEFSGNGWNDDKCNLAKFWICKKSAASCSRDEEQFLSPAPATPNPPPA
The test can be described thus: phage ELISA: DC-SIGN coated on the wells, serial dilutions of LIP1-33 phage, detection with anti-M13 antibody-HRP and TMB, OD450. As to the method:
(§1) Phage particles from LIP1-33 were prepared, and serial dilutions of phage particles were tested in ELISA. The ELISA wells were coated overnight at 4° C. with DC SIGNR, neutravidin, DC SIGN or DC SIGN peptide (1-10 μg/ml in PBS or 0.1 M NaHCO₃ buffer, pH 9.6). After blocking the wells with PBS containing 2% skimmed-milk powder (PBSM), phage was incubated in PBSM for 1 hr. After washing with PBS, bound phage were detected using a conjugate of horseradish peroxidase with an anti-M13 monoclonal antibody (Amersham) using 3,3′,5,5′-tetramethylbenzidine as substrate. HEL4 and VKdummy are non-binding negative controls.
(§2) For phage ELISA, the ELISA wells were coated overnight at 4° C. with DC SIGN or DC SIGNR (R&D Cat nr 162-D2) at (1-10 μg/ml in PBS or 0.1 M NaHCO₃ buffer, pH 9.6). After blocking the wells with PBS containing 2% skimmed-milk powder (PBSM), phage was incubated in PBSM for 1 hr. After washing with PBS, bound phage were detected using a conjugate of horseradish peroxidase with an anti-M13 monoclonal antibody (Amersham) using 3,3′,5,5′-tetramethylbenzidine as substrate.

Test [2] has as its target T2, DC-SIGNR (Homo sapiens (Human), UniProt Q9H2X3 78-399, limits assumed).
T2 construct: Bought (R&D Cat nr 162-D2)
T2 sequence: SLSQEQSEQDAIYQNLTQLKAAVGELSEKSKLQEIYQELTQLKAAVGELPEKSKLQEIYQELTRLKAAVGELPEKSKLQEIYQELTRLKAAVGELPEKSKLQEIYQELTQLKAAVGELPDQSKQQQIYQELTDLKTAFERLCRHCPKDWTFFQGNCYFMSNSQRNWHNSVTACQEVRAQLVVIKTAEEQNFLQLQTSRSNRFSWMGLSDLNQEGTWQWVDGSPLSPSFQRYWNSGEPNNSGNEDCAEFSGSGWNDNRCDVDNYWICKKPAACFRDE
The test can be described thus: phage ELISA: DC-SIGNR coated on the wells, serial dilutions of LIP1-33 phage, detection with anti-M13 antibody-HRP and TMB, OD450. As to the method: as §1, §2

Test [3] has as its target B4. Description: phage ELISA: DC-SIGN peptide coated on the wells, serial dilutions of LIP1-33 phage, detection with anti-M13 antibody-HRP and TMB, OD450. As to the method:
as §1

Test [4] has as its target T1, human DC-SIGN. The test can be described thus: phage ELISA.
Test [5] has as its target T1, human DC-SIGN. Description: phage ELISA: DC-SIGN coated on the wells, serial dilutions of phage particles, detection with anti-M13 antibody-HRP and TMB, OD 450. As to the method:
Phage particles from individual LIP1 clones were prepared, and serial dilutions of phage particles were tested in ELISA. The ELISA wells were coated overnight at 4° C. with DC SIGN (1-10 μg/ml in PBS or 0.1 M NaHCO₃ buffer, pH 9.6). After blocking the wells with PBS containing 2% skimmed-milk powder (PBSM), phage was incubated in PBSM for 1 hr. After washing with PBS, bound phage were detected using a conjugate of horseradish peroxidase with an anti-M13 monoclonal antibody (Amersham) using 3,3′,5,5′-tetramethylbenzidine as substrate.
as §2

Test [6] concerns the target B1. Description: competition phage ELISA; HIS tagged peptide in solution as competitor (data not shown).

In the case of B1, the binding result in test [1] is given as “binds”; in test [2] it was “no binding”; in test [3], “binds”.

In the case of B2, the binding result in test [4] is recorded as “binds”.

As to B3, the binding result in test [5] was “binds”.

Turning to B4, the binding result in test [6] is “binds”.

In the case of B5, the binding result in test [4] was “binds”.

As for B6, in test [5], the binding result is on record as “binds”.

For the molecule B7, the binding result in test [5] was “binds”.

Regarding B8, the binding result in test [4] is given as “binds”.

Turning to B9, in test [5], the binding result was “binds”.

With B10, the binding result in test [4] is “binds”.

On to B11, for which the binding result in test [5] was “binds”.

Regarding B12, the binding result in test [5] is reported as “binds”.
